Literature values as cited in paper PMC8335159.

Key:
[1] = biological target: VWF peptide 1660-1668 (Homo sapiens) (UniProt P04275)
[2] = biological target: TIMP-3 cyclic peptide 60-70 (Homo sapiens)
[3] = biological target: TIMP-3 cyclic peptide 62-68 (Homo sapiens)
[4] = biological target: TIMP-3 cyclic peptide 61-70 (Homo sapiens)

| Substance | Ki [1] | Kd [2] | Kd [3] | Kd [4] |
| --- | --- | --- | --- | --- |
| ADAMTS-13 (from UniProt Q76LX8) | 1 µM | – | – | – |
| ADAM-17 (from UniProt P78536) | – | 18 µM | 25 µM | 3.7 µM |
